Results reported in the supplement of paper PMC9170038.

Tested on: MS2 coat protein
Test: apparent KD of MS2 coat protein; designed switch direction (-1 OFF switch, 1 ON switch): 1; higher = weaker reporter binding
Outline: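 RNA switches sharing common flanks were transcribed by stalled E. coli RNA polymerase on Illumina chips. A doubling series of SNAP-549-labelled MS2 coat protein, from 0.7 or 1.5 nM to 3 µM, was applied in Tris-HCl pH 7.5 buffer with KCl, MgCl2, BSA, DTT, tRNA and Tween-20. Each step lasted 0.8–1.5 h at the bottom of the series and 10–20 min at the top. Normalised cluster fluorescence was curve-fitted, giving apparent KD as the per-design median over clusters.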

[1] = input ligand: microRNA oligo, concentration not stated
[2] = Eterna round: R95, input ligand: FMN 200 uM
[3] = Eterna round: R95, input ligand: microRNA oligo, concentration not stated
[4] = Eterna round: R95, input ligand: none

Sequence	apparent KD of MS2 coat protein (input ligand: FMN 200 uM) [nM]	apparent KD of MS2 coat protein [1] [nM]	apparent KD of MS2 coat protein (input ligand: none) [nM]	apparent KD of MS2 coat protein [2] [nM]	apparent KD of MS2 coat protein [3] [nM]	apparent KD of MS2 coat protein [4] [nM]
AUUACUAACAUAGGAUAUCAUGCGAAAAUUGCGUGAGAAGGGUGGACACUGUCAUUCUCGGAGCACAUGAGGAUCACCCAUGUG [SameState NG1 #70] (Eterna round: R96, puzzle: Same State NG 1)	80.6	42.4	59			
CAGCGCUGCCGGGAGGAUAUGCGGUGAUGGACAUGAGGAUCACCCAUGUUAGCGGUAGCAUUACGGCAGAAGGCCCUGCAGCUGC [Soteed Omei mod 1] (puzzle: Same State 2)				10.9	12.3	12.3
AGAGGAGGAGCAGGAUAUUCGAAGAAGGACGUGGAAGAAGGGUUCAUGCGAUGACAUGAGGAUCACCCAUGUACCGCGCGAUGA [AK SSNG1-V2-13] (Eterna round: R96, puzzle: Same State NG 1)	145	115	130			
UUUAGAUCGCGAGGAUAUCGCGAGGAUCACCCGUGAGAAGGCGCAGAGCCGAGGAUCACCCGGCUGAUCCUGAGAAGGAGGUCU (Eterna round: R96, puzzle: Same State NG 1)	45.1	87.7	129			
ACAAGCUUUUUGCUCGUCUUCAUGUAAUAACAUGAGGAUCACCCAUGUAACGUUAAAAGUCUCUCGAUAAUAGCUCA [Meechl hsa-mir-208a 1] (puzzle: Sensor for hsa-mir-208a)				132	33.6	348
GCGGAACGGGCCGACAUGAGGAUCACCCAUGUGCCCUCAUGUAAGGAUAUCGGGAAGAAGAAAACCGAGAAGGUACGGUGACGC [AK SSNG3-V2-30] (Eterna round: R96, puzzle: Same State NG 3)	945	51.5	137			
CCGAUUUAUGGAGGAUAUGGAGCCUUAUUGGCUCCAGAAGGCUAAUAACAUGAGGAUCACCCAUGUCGGCGGUCUAAUGACCGA [Eli NG1ss - 52] (Eterna round: R96, puzzle: Same State NG 1)	39.2	47.5	91.6			
UUAACAUGAGGAUCACCCAUGUAUAGGGAGUUAGCAAUUUGACAGGAUAUUGAAGAUGUAGAUAGCAAGAAGGGUCGGUAGUCU [JR_SSNG3_Sub003] (Eterna round: R96, puzzle: Same State NG 3)	39.9	41.3	45.9			
UGUUAACAUGAGGAUCACCCAUGUCAAAUGAAUCGAGGAUAUGGUAAGUAAUAAGAUAAUCUAGAAGGCGAAGUUG [Altered State 1-23 - Jieux - Same State 1] (puzzle: Same State 1)				42.6	55.8	58
UGUACCUUCACAGGAUAUCAUGCGAAAAUUGCGUGAGAAGGGUGAAUACUGUCUUUCUAAGAGUACAUGAGGAUCACCCAUGUA [SameState NG1 #60] (Eterna round: R96, puzzle: Same State NG 1)	50	56.1	73.8			
GUGGUUCUCGUAGGAUAUGUAGGAUAUGCCUACAUGAGGAUCACCCAUGUUCGCAUGGCAGAAGGACAGAAGGACGAUCACUAA [pwkr ssNG2 2FMN + 1F5.15] (Eterna round: R96, puzzle: Same State NG 2)	159	11.7	94.2			
AACAAUCUAUCUGAGGAUAUCAUGAGAAGAACAUGAGGAUCACCCAUGUGCAGGAAAACUGCAUAUGAGAAGGCAGAUAGAUUGG [Mat - Same State 2 - Mod - D18] (puzzle: Same State 2)				52.8	621	1950
ACAUUUAGCUCUUGCACAUGAGGAUCACCCAUGUUCGGUUCACAGGAUAUCUAGUCAAACGGGCUGGAGAAGGGUGGCAGGAGC [Islainon] (Eterna round: R96, puzzle: Same State NG 3)	67.9	200	289			
AGAGAACAUGAGGAUCACCCAUGUGAGAGGGAUGUAGGAUAUGUAAGGAAGAAAGAAGGAACAGAAGGACAAAGAG [JR_SS!_Sub066] (puzzle: Same State 1)				50.5	78.5	70.7
GACUAUCUAUCUCAGGAUAUCAUGUCAAAGACAUGAGGAUCACCCAUGUACCAGGAAACUGGUUAUGAGAAGGGAGAUAGAUAGA [Mat - Same State 2 - Mod - D44] (puzzle: Same State 2)				130	58.1	991
AUUAUAAAUGCAGGAUAUGAUUAACAUGAGGAUCACCCAUGUGGUGUUGUGAGUAAGGAGAGUGAUCAGAAGGGCAUUUUUUUU [JMF's solution 24] (Eterna round: R96, puzzle: Same State NG 2)	620	343	555			
CUACUACAUGAGGAUCACCCAUGUUGUAGUGAUGCAGGAUAUGUGUGACCAGAAGAUGAAACAGAAGGGCAAAGAA [JR_SS!_Sub002] (puzzle: Same State 1)				13.5	15.9	15.2
CGUCGCUGUCGAGAGGAUAUGCGGUGAUGGACAUGAGGAUCACCCAUGUUAGCGAUAGCAUCGCGGCAGAAGGCUCUUACGACUG [Soteed Omei mod 28] (puzzle: Same State 2)				18.6	19.8	23.7
GGUAGGUUACUACCAAACAUGAGGAUCACCCAUGUAAGUGGGAAGGAUAUGGUACCUUUUAGGUACCAGAAGGUCCAUAUAGUA [JL Fiskers NG3ss - 2 mod 10] (Eterna round: R96, puzzle: Same State NG 3)	254	783	1000			
UAGAAACAUGAGGAUCACCCAUGUGGGUUAAACACAGGAUAUCACGCCAAAAGAAAAGCGUGAGAAGGGUGACCGA [Xeusisus] (puzzle: Same State 1)				166	71.2	161
ACAUGAGAGUUAGGAUAUCUUGUACCUACAUGUGACAUGAGGAUCACCCAUGUGGUAAGUAUGAGGGAGAAGGGACAGAUAUGU [Equivalence 44 - Jieux - Same State NG 2] (Eterna round: R96, puzzle: Same State NG 2)	67.4	54.4	84.7			
UACAAUCUAUCUCAGGAUAUCAUGUCAAAGACAUGAGGAUCACCCAUGUACCAGGAAACUGGUUAUGAGAAGGGAGAUAGAUUGU [Mat - Same State 2 - Mod - D24] (puzzle: Same State 2)				136	35.4	77.9
AUUAAUAAUCUAGGAUAUCACGUCGAUUAGACGUGAGAAGGAGAUCAUAACAUGAGGAUCACCCAUGUAUUACAUGAAGUUAAU [SSNG1/7-B2] (Eterna round: R96, puzzle: Same State NG 1)	27.5	28.8	38.1			
